{
  "source": "ChEMBL document CHEMBL2074511",
  "about": "“Molecular cloning and pharmacological characterization of rat multidrug resistance protein 1 (mrp1)” (Drug Metab Dispos, 2003)",
  "substrate": "CCCCC/C=C\\C\\C=C/C=C/C=C/[C@@H](SC[C@@H](NC(=O)CC[C@H](N)C(=O)O)C(=O)NCC(=O)O)[C@@H](O)CCCC(=O)O",
  "assay": "cells, lysate or membranes named",
  "data": [
    {"protein": "Multidrug resistance-associated protein 1 (Mus musculus) (protein) MALRSFCSADGSDPLWDWNVTWHTSNPDFTKCFQNTVLTWVPCFYLWSCFPLYFFYLSRHDRGYIQMTHLNKTKTALGFFLWIICWADLFYSFWERSQGVLRAPVLLVSPTLLGITMLLATFLIQLERRKGVQSSGIMLTFWLVALLCALAILRSKIISALKKDAHVDVFRDSTFYLYFTLVLVQLVLSCFSDCSPLFSETVHDRNPCPESSASFLSRITFWWITGMMVHGYRQPLESSDLWSLNKEDTSEEVVPVLVNNWKKECDKSRKQPVRIVYAPPKDPSKPKGSSQLDVNEEVEALIVKSPHKDREPSLFKVLYKTFGPYFLMSFLYKALHDLMMFAGPKILELIINFVNDREAPDWQGYFYTALLFVSACLQTLALHQYFHICFVSGMRIKTAVVGAVYRKALLITNAARKSSTVGEIVNLMSVDAQRFMDLATYINMIWSAPLQVILALYFLWLSLGPSVLAGVAVMILMVPLNAVMAMKTKTYQVAHMKSKDNRIKLMNEILNGIKVLKLYAWELAFQDKVMSIRQEELKVLKKSAYLAAVGTFTWVCTPFLVALSTFAVFVTVDERNILDAKKAFVSLALFNILRFPLNILPMVISSIVQASVSLKRLRIFLSHEELEPDSIERRSIKSGEGNSITVKNATFTWARGEPPTLNGITFSIPEGALVAVVGQVGCGKSSLLSALLAEMDKVEGHVTLKGSVAYVPQQAWIQNDSLRENILFGHPLQENYYKAVMEACALLPDLEILPSGDRTEIGEKGVNLSGGQKQRVSLARAVYSNSDIYLFDDPLSAVDAHVGKHIFEKVVGPMGLLKNKTRILVTHGISYLPQVDVIIVMSGGKISEMGSYQELLDRDGAFAEFLRTYANAEQDLASEDDSVSGSGKESKPVENGMLVTDTVGKHLQRHLSNSSSHSGDTSQQHSSIAELQKAGAKEETWKLMEADKAQTGQVQLSVYWNYMKAIGLFITFLSIFLFLCNHVSALASNYWLSLWTDDPPVVNGTQANRNFRLSVYGALGILQGAAIFGYSMAVSIGGIFASRRLHLDLLYNVLRSPMSFFERTPSGNLVNRFSKELDTVDSMIPQVIKMFMGSLFSVIGAVIIILLATPIAAVIIPPLGLVYFFVQRFYVASSRQLKRLESVSRSPVYSHFNETLLGVSVIRAFEEQERFIHQSDLKVDENQKAYYPSIVANRWLAVRLECVGNCIVLFAALFAVISRHSLSAGLVGLSVSYSLQITAYLNWLVRMSSEMETNIVAVERLKEYSETEKEAPWQIQETAPPSTWPHSGRVEFRDYCLRYREDLDLVLKHINVTIEGGEKVGIVGRTGAGKSSLTLGLFRINESAEGEIIIDGVNIAKIGLHNLRFKITIIPQDPVLFSGSLRMNLDPFSQYSDEEVWMALELAHLKGFVSALPDKLNHECAEGGENLSVGQRQLVCLARALLRKTKILVLDEATAAVDLETDNLIQSTIRTQFEDCTVLTIAHRLNTIMDYTRVIVLDKGEVRECGAPSELLQQRGIFYSMAKDAGLV", "values": [
      {"measurement": "Km", "value": 0.05, "unit": "µM"}
    ]}
  ]
}
